Biological target: T1, Marinomonas mediterranea (MMB-1) Cas2, purified with N-terminal 6xHis tag
T1 chain: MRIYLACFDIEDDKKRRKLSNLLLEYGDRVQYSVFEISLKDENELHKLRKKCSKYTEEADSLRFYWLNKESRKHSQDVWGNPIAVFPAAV

B1: Marinomonas mediterranea (MMB-1) RT-Cas1 fusion protein, wild type, purified with N-terminal maltose-binding protein tag (protein)
chain: MLNSPLIDAVLPLRSVVITLRWLSPSKTGFLHHAGLHAWVRFLAGSPEQFSDFIVVEPIENGHISYQAGDGYRFRITVLNGGESLLDTLFSSLKRLPESAANHPDIAGAFSDNLVLEKIEDTFEHHQVTQIEDLSVFDINALMLETAVWSRQRRFKVAFNTPARLVKPKPEDGTELKGQNRYCRDKSDLNWQLFTHRLTDTFINLFQSRTGERLQRQNWPEAQLHAGLAVWLNNSYTNKKEKKVKDASGMLAQMQIEIDDDFPADLLALLVLGQYIGMGQNRAFGMGQYQLQDAYGYCSYPRPQAAKSLLEKSLSDASLHQACQTMYPRQANFDSSDTDEEHHDAIDELLTKLYVSRERIFKREFTPSQLHSVEIEKPEGGTRLLSVPNWHDRTLQKAVTECLGNTLEHIWMKHSYGYRKGHSRLQARDQINQYIQQGYEWVLESDIESFFDSVNWLNLEQRLKLLLPNEPLVPLLMQWVSAAKQTEDEQTLARHNGLPQGAPISPILANLLLDDLDQDMIAKGHQIVRYADDFVLLFKSKAAAESALDDIITALKEHHLAINLEKTRIVEASQGFRYLGYLFVDGYAIETKREYRKEHAQLDKQLNASSLENEPSLQQEPAVQNEQSTLIGEREKLGTLLIIAGDIAMLSSEKQRLIVEQYDELHTYPWATLSSVLLVGPHHITTPALKSAMFHNVPVHFASQYGRYQGVSAGAAPSVFGADFWLLQAQYLQQETNALNISQVLIQARIEGIRAVISRREKDAPELNKIQRLDEKRLRAETLDQLRGYEGQASKQLWAFFQRILEEDWGFTGRNRRPPKDPINALLSLGYTYLYSLVDSVNRTVGLYPWQGALHQRHGYHHTLASDLMEPWRYLVEHVVLTLINRHQIHKDDFVIKENGCEMSSGARKTLLKELLVQLTKVPKGGNSLLTEMSNQSYRLALSCKMQQRFIAWSPKR
cleavage of the CRISPR DNA substrate with ligation of a dsDNA oligonucleotide (in vitro cleavage-ligation assay, gel): products derived from cleavage of the CRISPR substrate were readily detected in the presence of RT-Cas1 and Cas2 together but not in the presence of either protein alone

Source: patent US20170275665
